# Publication PMC5762779, “The peroxisomal AAA-ATPase Pex1/Pex6 unfolds substrates by processive threading” (Nature Communications, 2018)
# Positions count from the first letter of the chain named. Names and notes keep the numbering of the source.
# T1: His-Pex6-FLAG (S. cerevisiae, UniProt P33760 1-1030)
# T1 construct: Pex6, S. cerevisiae W303, purified individually; not shown: His, N-terminal, kept; FLAG, C-terminal, kept
# T1 sequence (looked up): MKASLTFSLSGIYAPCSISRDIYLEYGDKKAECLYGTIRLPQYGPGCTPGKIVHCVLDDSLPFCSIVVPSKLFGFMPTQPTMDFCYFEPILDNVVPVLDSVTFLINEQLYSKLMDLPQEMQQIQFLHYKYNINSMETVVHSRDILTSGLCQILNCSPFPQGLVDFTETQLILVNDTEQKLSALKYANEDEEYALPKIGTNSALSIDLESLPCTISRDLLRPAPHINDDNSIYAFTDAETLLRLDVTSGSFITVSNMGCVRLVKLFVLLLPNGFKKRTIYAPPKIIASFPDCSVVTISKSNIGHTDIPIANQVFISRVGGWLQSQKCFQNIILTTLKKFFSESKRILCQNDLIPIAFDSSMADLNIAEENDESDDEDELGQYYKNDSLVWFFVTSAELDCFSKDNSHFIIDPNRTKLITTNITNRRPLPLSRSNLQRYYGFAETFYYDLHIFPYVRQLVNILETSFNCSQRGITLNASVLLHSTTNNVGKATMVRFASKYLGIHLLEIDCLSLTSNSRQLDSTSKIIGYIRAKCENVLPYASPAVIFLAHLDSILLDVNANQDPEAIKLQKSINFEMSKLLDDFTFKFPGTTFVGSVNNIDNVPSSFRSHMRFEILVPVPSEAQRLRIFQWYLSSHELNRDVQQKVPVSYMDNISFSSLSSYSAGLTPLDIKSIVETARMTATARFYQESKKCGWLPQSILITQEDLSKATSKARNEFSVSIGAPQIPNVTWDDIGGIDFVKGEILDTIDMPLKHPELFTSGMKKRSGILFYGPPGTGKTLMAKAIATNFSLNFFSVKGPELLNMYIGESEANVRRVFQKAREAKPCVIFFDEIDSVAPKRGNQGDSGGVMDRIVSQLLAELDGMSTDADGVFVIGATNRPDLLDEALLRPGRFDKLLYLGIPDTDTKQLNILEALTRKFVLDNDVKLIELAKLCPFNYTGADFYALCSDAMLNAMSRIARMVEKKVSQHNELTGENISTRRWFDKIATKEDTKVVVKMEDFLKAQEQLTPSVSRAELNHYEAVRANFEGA
# T2: fluorescein labeled Pex5 (S. cerevisiae, UniProt P35056 1-612, fluorescein (FAM) on a GGGK peptide joined by sortase at the C-terminal LPETGG site)
# T2 construct: Pex5, S. cerevisiae W303; after labelling the chain ends LPET-GGGK-FAM; also called Pex5-FAM; source: E. coli BL21*, purified (Ni-NTA, anti-FLAG, Superdex 200), labelled with sortase and GGGK-FAM peptide; not shown: His6, C-terminal, cleaved
# T2 sequence (looked up): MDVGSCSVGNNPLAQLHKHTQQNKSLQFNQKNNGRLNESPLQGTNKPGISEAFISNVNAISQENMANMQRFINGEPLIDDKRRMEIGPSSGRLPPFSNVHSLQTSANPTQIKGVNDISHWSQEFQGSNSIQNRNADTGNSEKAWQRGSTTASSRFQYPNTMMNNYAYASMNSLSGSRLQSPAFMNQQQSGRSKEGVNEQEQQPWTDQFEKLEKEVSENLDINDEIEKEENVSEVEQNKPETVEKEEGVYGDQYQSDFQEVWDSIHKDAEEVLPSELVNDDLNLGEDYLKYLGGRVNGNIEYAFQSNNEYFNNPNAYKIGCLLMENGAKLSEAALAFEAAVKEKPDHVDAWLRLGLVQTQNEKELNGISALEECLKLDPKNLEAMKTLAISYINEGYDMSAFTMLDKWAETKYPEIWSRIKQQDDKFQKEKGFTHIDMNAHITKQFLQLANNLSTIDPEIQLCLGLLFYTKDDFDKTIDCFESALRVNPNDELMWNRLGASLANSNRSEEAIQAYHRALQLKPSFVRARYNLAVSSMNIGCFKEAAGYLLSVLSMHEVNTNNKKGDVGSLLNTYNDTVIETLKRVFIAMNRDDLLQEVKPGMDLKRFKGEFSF
# B1: Pex15 1-309 L22A L23A (domain or fragment, S. cerevisiae, UniProt Q08215 1-309, looked up)
# chain: MAASEIMNNLPMHSLDSSLRDAANDDLFIESDESTKSVNDQRSEVFQECVNLFIKRDIKDCLEKMSEVGFIDITVFKSNPMILDLFVSACDIMPSFTKLGLTLQSEILNIFTLDTPQCIETRKIILGDLSKLLVINKFFRCCIKVIQFNLTDHTEQEEKTLELESIMSDFIFVYITKMRTTIDVVGLQELIEIFIFQVKVKLHHKKPSPNMYWALCKTLPKLSPTLKGLYLSKDVSIEDAILNSIDNKIQKDKAKSKGKQRGVKQKIHHFHEPMLHNSSEEQVKVEDAFNQRTSTDSRLQSTGTAPRKK
# notes: also called Pex15 L22AL23A; source: E. coli BL21*, purified (Ni-NTA, tag cleaved with PreScission protease, Superdex 200); not shown: His, C-terminal, cleaved
# B2: MBP-Pex15 1-309 (domain or fragment, S. cerevisiae, UniProt Q08215 1-309, looked up)
# chain: B1 chain with A22L, A23L
# notes: not shown: MBP, N-terminal, kept
# B3: Pex15 30-309 (domain or fragment, S. cerevisiae, UniProt Q08215 30-309, looked up)
# chain: ESDESTKSVNDQRSEVFQECVNLFIKRDIKDCLEKMSEVGFIDITVFKSNPMILDLFVSACDIMPSFTKLGLTLQSEILNIFTLDTPQCIETRKIILGDLSKLLVINKFFRCCIKVIQFNLTDHTEQEEKTLELESIMSDFIFVYITKMRTTIDVVGLQELIEIFIFQVKVKLHHKKPSPNMYWALCKTLPKLSPTLKGLYLSKDVSIEDAILNSIDNKIQKDKAKSKGKQRGVKQKIHHFHEPMLHNSSEEQVKVEDAFNQRTSTDSRLQSTGTAPRKK
# notes: begins at E30 (primer 'Pex15 E30 forward', D1:p20); source: E. coli BL21*, purified (Ni-NTA, tag cleaved with PreScission protease, Superdex 200); not shown: His, C-terminal, cleaved
# B4: MBP-Pex15 1-327-FLAG-His (domain or fragment, S. cerevisiae, UniProt Q08215 1-327, looked up)
# chain: MAASEIMNNLPMHSLDSSLRDLLNDDLFIESDESTKSVNDQRSEVFQECVNLFIKRDIKDCLEKMSEVGFIDITVFKSNPMILDLFVSACDIMPSFTKLGLTLQSEILNIFTLDTPQCIETRKIILGDLSKLLVINKFFRCCIKVIQFNLTDHTEQEEKTLELESIMSDFIFVYITKMRTTIDVVGLQELIEIFIFQVKVKLHHKKPSPNMYWALCKTLPKLSPTLKGLYLSKDVSIEDAILNSIDNKIQKDKAKSKGKQRGVKQKIHHFHEPMLHNSSEEQVKVEDAFNQRTSTDSRLQSTGTAPRKKNNDITVLAGSFWAVLKHH
# notes: Pex15, S. cerevisiae W303, cytosolic domain, residues 1-327; Held on magnetic amylose resin by its MBP; not shown: MBP, N-terminal, kept; FLAG, C-terminal, kept; His, C-terminal, kept
# B5: Pex15 43-309 (domain or fragment, S. cerevisiae, UniProt Q08215 43-309, looked up)
# chain: SEVFQECVNLFIKRDIKDCLEKMSEVGFIDITVFKSNPMILDLFVSACDIMPSFTKLGLTLQSEILNIFTLDTPQCIETRKIILGDLSKLLVINKFFRCCIKVIQFNLTDHTEQEEKTLELESIMSDFIFVYITKMRTTIDVVGLQELIEIFIFQVKVKLHHKKPSPNMYWALCKTLPKLSPTLKGLYLSKDVSIEDAILNSIDNKIQKDKAKSKGKQRGVKQKIHHFHEPMLHNSSEEQVKVEDAFNQRTSTDSRLQSTGTAPRKK
# notes: begins at S43 (primer 'Pex15 S43 forward', D1:p20); source: E. coli BL21*, purified (Ni-NTA, tag cleaved with PreScission protease, Superdex 200); not shown: His, C-terminal, cleaved
# B6: MBP-Pex15 1-253 (domain or fragment, S. cerevisiae, UniProt Q08215 1-253, looked up)
# chain: MAASEIMNNLPMHSLDSSLRDLLNDDLFIESDESTKSVNDQRSEVFQECVNLFIKRDIKDCLEKMSEVGFIDITVFKSNPMILDLFVSACDIMPSFTKLGLTLQSEILNIFTLDTPQCIETRKIILGDLSKLLVINKFFRCCIKVIQFNLTDHTEQEEKTLELESIMSDFIFVYITKMRTTIDVVGLQELIEIFIFQVKVKLHHKKPSPNMYWALCKTLPKLSPTLKGLYLSKDVSIEDAILNSIDNKIQKDK
# notes: as for B2
# B7: Pex15 12-309 (domain or fragment, S. cerevisiae, UniProt Q08215 12-309, looked up)
# chain: MHSLDSSLRDLLNDDLFIESDESTKSVNDQRSEVFQECVNLFIKRDIKDCLEKMSEVGFIDITVFKSNPMILDLFVSACDIMPSFTKLGLTLQSEILNIFTLDTPQCIETRKIILGDLSKLLVINKFFRCCIKVIQFNLTDHTEQEEKTLELESIMSDFIFVYITKMRTTIDVVGLQELIEIFIFQVKVKLHHKKPSPNMYWALCKTLPKLSPTLKGLYLSKDVSIEDAILNSIDNKIQKDKAKSKGKQRGVKQKIHHFHEPMLHNSSEEQVKVEDAFNQRTSTDSRLQSTGTAPRKK
# notes: begins at M12 (primer 'Pex15 M12 forward', D1:p20); source: E. coli BL21*, purified (Ni-NTA, tag cleaved with PreScission protease, Superdex 200); not shown: His, C-terminal, cleaved
# How the values were obtained:
# Details in all cases: both partners purified
# [1] = target: T3, Pex1-FLAG/His-Pex6 hexamer, wild type (S. cerevisiae, UniProt P24004 1-1043; P33760 1-1030); assay: inhibition of ATPase activity (ATP/NADH coupled enzyme assay); apparent KD from the concentration-dependent inhibition of the ATPase activity of 5 nM Pex1/Pex6 by titrated Pex15; 5 mM ATP, 2 uM BSA; n = 3 technical replicates
# T3 construct: Pex1, S. cerevisiae W303; Pex6, S. cerevisiae W303; Heterohexamer with alternating subunits; also called WT Pex1/Pex6; Pex1/Pex6; source: E. coli BL21*, co-expressed, purified (Ni-NTA, anti-FLAG, Superose6); copies: 3 + 3
# T3 sequence (P24004 whole entry, chain 1 of 2, one chain of several): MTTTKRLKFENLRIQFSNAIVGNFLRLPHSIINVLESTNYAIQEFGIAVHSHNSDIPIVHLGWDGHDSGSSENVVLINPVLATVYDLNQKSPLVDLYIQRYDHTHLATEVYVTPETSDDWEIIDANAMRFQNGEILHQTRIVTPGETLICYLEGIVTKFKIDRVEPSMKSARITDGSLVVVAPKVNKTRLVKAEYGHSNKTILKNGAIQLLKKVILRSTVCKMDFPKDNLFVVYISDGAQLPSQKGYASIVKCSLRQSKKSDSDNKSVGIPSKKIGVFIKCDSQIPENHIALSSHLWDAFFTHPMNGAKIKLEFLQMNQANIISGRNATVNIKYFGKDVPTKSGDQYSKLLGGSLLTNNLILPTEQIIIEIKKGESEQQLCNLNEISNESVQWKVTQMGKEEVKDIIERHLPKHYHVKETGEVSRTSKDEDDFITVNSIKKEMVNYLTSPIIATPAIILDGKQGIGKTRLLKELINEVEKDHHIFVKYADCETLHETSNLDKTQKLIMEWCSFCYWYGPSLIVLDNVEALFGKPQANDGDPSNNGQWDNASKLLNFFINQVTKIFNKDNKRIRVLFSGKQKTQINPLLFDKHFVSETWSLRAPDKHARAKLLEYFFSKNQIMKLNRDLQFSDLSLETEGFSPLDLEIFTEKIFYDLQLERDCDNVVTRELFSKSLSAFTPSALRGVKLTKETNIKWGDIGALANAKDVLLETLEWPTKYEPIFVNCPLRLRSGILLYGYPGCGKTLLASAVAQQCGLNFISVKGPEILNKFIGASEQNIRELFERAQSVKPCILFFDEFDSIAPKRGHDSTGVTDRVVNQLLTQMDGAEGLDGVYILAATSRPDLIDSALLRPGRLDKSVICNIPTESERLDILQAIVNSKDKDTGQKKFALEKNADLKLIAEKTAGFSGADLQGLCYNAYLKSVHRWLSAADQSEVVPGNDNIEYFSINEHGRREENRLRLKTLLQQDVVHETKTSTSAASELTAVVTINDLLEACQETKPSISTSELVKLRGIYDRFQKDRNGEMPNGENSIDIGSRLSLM
# [2] = target: T4, Pex1-WB2/Pex6-WB2 mutant hexamer (Pex1-E798Q-Strep/His-Pex6-E832Q) (S. cerevisiae, UniProt P24004 1-1043; P33760 1-1030, E798Q | E832Q); assay: pull-down; MBP-Pex15 1-309 or MBP-Pex15 1-253 with Pex1-WB2/Pex6-WB2; maltose elution, SDS-PAGE
# T4 construct: Pex1, S. cerevisiae W303, Walker B D2 mutant; Pex6, S. cerevisiae W303, Walker B D2 mutant; also called Pex1-WB/Pex6-WB; ATPase-deficient Pex1/Pex6; source: E. coli BL21*, co-expressed, purified (Ni-NTA, Streptactin); copies: 3 + 3
# T4 sequence (P24004 whole entry E798Q, one chain of several): as the sequence (P24004 whole entry, chain 1 of 2, one chain of several) above, with E798Q counted along it
# His-Pex6-FLAG = target: T1, His-Pex6-FLAG; assay: pull-down; 1 uM MBP-Pex15 1-327-FLAG-His on magnetic amylose resin with 0.5 uM Pex1-Strep/His-Pex6 hexamer, His-Pex1-FLAG, His-Pex6-FLAG or 5 uM His-Pex6 1-215; 1 h, 4 °C, 60 mM HEPES pH 7.6, 150 mM NaCl, 150 mM KCl, 10% glycerol, 0.05% Tween-20, 10 mM MgCl2, 0.5 mM EDTA, 5 mM ATP; maltose elution; SYPRO-Ruby or anti-His blot
# fluorescein labeled Pex5 = target: T2, fluorescein labeled Pex5; assay: pull-down; MBP-Pex6/Pex1 or MBP-Pex15 1-327 on magnetic amylose resin with Pex5-FAM; same conditions as Figure 7B (350 nM Pex5-FAM, 1 h, 4 °C, 60 mM HEPES pH 7.6, 150 mM NaCl, 150 mM KCl, 10% glycerol, 0.05% Tween-20, 10 mM MgCl2, 0.5 mM EDTA, 5 mM ATP); maltose elution; Pex5 seen by its fluorescein
Binder,Kd [1],further results
B1,8.7 µM,–
B2,–,binding result [2]: binds
B3,5.3 µM,–
B4,–,binding result (His-Pex6-FLAG): binds; binding result (fluorescein labeled Pex5): binds
B5,5.6 µM,–
B6,–,binding result [2]: binds
B7,0.86 µM,–
